US20140212458A1

Target: BG505.T332N Env on Env-pseudotyped virus (HIV-1 BG505 (clade A))

With CD4-IgG2 (Fc fusion) as the substance, how does the IC50, neutralization of BG505.T332N pseudovirus, TZM-bl cells read?
Its IC50, neutralization of BG505.T332N pseudovirus, TZM-bl cells is 0.433 µg/mL.
